Test results taken from article PMC11461180, “Interaction with IP6K1 supports pyrophosphorylation of substrate proteins by the inositol pyrophosphate 5-InsP7” (Bioscience Reports, 2024).

Biological target: V5-tagged IP6K1 (human, UniProt Q92551-1 1-441)
Assay: cell-based or functional assay

Chain of V5-tagged IP6K1 (Q92551 whole entry): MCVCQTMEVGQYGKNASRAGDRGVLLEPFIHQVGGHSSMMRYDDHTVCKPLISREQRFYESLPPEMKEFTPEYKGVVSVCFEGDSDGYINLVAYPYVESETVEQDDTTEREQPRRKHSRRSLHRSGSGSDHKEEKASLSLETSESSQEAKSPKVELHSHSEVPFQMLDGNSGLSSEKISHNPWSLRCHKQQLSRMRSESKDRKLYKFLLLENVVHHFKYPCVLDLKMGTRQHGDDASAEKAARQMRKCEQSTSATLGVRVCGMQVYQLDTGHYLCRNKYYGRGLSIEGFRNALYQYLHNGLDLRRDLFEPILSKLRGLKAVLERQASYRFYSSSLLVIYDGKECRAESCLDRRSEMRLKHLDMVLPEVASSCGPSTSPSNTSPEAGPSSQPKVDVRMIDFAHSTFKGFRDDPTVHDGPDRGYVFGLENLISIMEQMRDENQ

B1: myc epitope-tagged AP3B1 (natural protein, human, UniProt O00203-1 1-1094, looked up)
chain: MSSNSFPYNEQSGGGEATELGQEATSTISPSGAFGLFSSDLKKNEDLKQMLESNKDSAKLDAMKRIVGMIAKGKNASELFPAVVKNVASKNIEIKKLVYVYLVRYAEEQQDLALLSISTFQRALKDPNQLIRASALRVLSSIRVPIIVPIMMLAIKEASADLSPYVRKNAAHAIQKLYSLDPEQKEMLIEVIEKLLKDKSTLVAGSVVMAFEEVCPDRIDLIHKNYRKLCNLLVDVEEWGQVVIIHMLTRYARTQFVSPWKEGDELEDNGKNFYESDDDQKEKTDKKKKPYTMDPDHRLLIRNTKPLLQSRNAAVVMAVAQLYWHISPKSEAGIISKSLVRLLRSNREVQYIVLQNIATMSIQRKGMFEPYLKSFYVRSTDPTMIKTLKLEILTNLANEANISTLLREFQTYVKSQDKQFAAATIQTIGRCATNILEVTDTCLNGLVCLLSNRDEIVVAESVVVIKKLLQMQPAQHGEIIKHMAKLLDSITVPVARASILWLIGENCERVPKIAPDVLRKMAKSFTSEDDLVKLQILNLGAKLYLTNSKQTKLLTQYILNLGKYDQNYDIRDRTRFIRQLIVPNVKSGALSKYAKKIFLAQKPAPLLESPFKDRDHFQLGTLSHTLNIKATGYLELSNWPEVAPDPSVRNVEVIELAKEWTPAGKAKQENSAKKFYSESEEEEDSSDSSSDSESESGSESGEQGESGEEGDSNEDSSEDSSSEQDSESGRESGLENKRTAKRNSKAKGKSDSEDGEKENEKSKTSDSSNDESSSIEDSSSDSESESEPESESESRRVTKEKEKKTKQDRTPLTKDVSLLDLDDFNPVSTPVALPTPALSPSLMADLEGLHLSTSSSVISVSTPAFVPTKTHVLLHRMSGKGLAAHYFFPRQPCIFGDKMVSIQITLNNTTDRKIENIHIGEKKLPIGMKMHVFNPIDSLEPEGSITVSMGIDFCDSTQTASFQLCTKDDCFNVNIQPPVGELLLPVAMSEKDFKKEQGVLTGMNETSAVIIAAPQNFTPSVIFQKVVNVANVGAVPSGQDNIHRFAAKTVHSGSLMLVTVELKEGSTAQLIINTEKTVIGSVLLRELKPVLSQG
For B1, which “back-pyrophosphorylation of myc-AP3B1 by 5[β-32P]InsP7 after immunoprecipitation from IP6K1 knockout HEK293T cells co-expressing IP6K1-V5 and HA-CK2α, with SFB-IDR-1 against without” value is on record?
The value was ~2 fold.
